Source: publication PMC3717276, “Optimization and validation of mitochondria-based functional assay as a useful tool to identify BH3-like molecules selectively targeting anti-apoptotic Bcl-2 proteins” (BMC Biotechnology, 2013)
Ends that are not written are not given here. * marks the point of attachment. 6FAM = O=C1OC2(c3ccc(O)cc3Oc3cc(O)ccc32)c2cc(C(=O)*)ccc21

B1: Human Mcl-1 protein, residues 171-327, N-terminal 8xHis tag (domain or fragment, UniProt Q07820-1 171-327, looked up)
chain: EDELYRQSLEIISRYLREQATGAKDTKPMGRSGATSRKALETLRRVGDGVQRNHETAFQGMLRKLDIKNEDDVKSLSRVMIHVFSDGVTNWGRIVTLISFGAFVAKHLKTINQESCIEPLAESITDVLVRTKRDWLVKQRGWDGFVEFFHVEDLEGG
notes: human Mcl-1 fragment (NM_021960), residues 171-327; Cloned into the pHis-TEV vector; source: E. coli BL21(DE3), purified (Ni-NTA, Source Q15)

Tests used:
Conditions in all cases: both partners purified
[1] = biological target: B1; assay: fluorescence polarisation; saturation experiments with FAM-Bid and Mcl-1 or Bcl-2 protein; assay buffer 100 mM potassium phosphate, pH 7.5, 100 ug/ml bovine gamma globulin, 0.02% sodium azide
[2] = biological target: B1; assay: fluorescence polarisation; competition: Mcl-1 (20 nM) or Bcl-2 (40 nM) pre-incubated with FAM-Bid (2 nM and 2.5 nM), tested BH3 peptide added, 2-3 h; 100 mM potassium phosphate, pH 7.5, 100 ug/ml bovine gamma globulin, 0.02% sodium azide; Ki calculated from IC50
[3] = biological target: B1; assay: SPR; competitive solution binding: protein (20 nM) pre-incubated with tested BH3 peptide for at least 30 min, injected over immobilised biotin-Bim BH3 peptide; response at 30 s of dissociation
[4] = biological target: T1, Human Bcl-xL protein with internal deletion of 45-85 and C-terminal truncation of 212-233, N-terminal 8xHis … (human, UniProt Q07817-1 1-211, internal deletion of 45–85); assay: as above
T1 construct: human Bcl-xL (NM_138578), internal deletion of residues 45-85 and C-terminal truncation of 212-233; Cloned into the pHis-TEV vector (a modified pET vector); source: E. coli BL21(DE3), purified (Ni-NTA, Superdex75)
T1 sequence (Q07817 other isoform, or with tags, fused parts or gaps internal deletion of 45–85 | internal deletion of 45–85): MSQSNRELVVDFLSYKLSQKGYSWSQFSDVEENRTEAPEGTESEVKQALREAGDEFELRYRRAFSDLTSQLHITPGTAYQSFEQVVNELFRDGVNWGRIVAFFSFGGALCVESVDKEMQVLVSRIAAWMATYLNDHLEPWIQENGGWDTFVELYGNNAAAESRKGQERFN

[5] = biological target: T1, Human Bcl-xL protein with internal …; assay: fluorescence polarisation; competition: 30 nM Bcl-xL and 2.5 nM FAM-Bak, tested BH3 peptide added; 50 mM Tris-Bis, pH 7.4, 0.01% bovine gamma globulin; Ki calculated from IC50
[6] = biological target: T2, Biotin-labeled Bim BH3 peptide (residues 81-106) (biotin label, position not stated); assay: SPR; biotin-labeled Bim BH3 peptide immobilised on a streptavidin SA chip; proteins injected at different concentrations in HBS-EP (10 mM HEPES pH 7.4, 150 mM NaCl, 3 mM EDTA, 0.005% P20)
T2 construct: Bim BH3 peptide, residues 81-106 of Swiss-Prot O43521; also called immobilized Bim BH3 peptide; Bim peptide
T2 sequence (peptide, as listed by the source): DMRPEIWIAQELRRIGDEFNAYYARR

Kd [1] [nM]	Ki [2] [nM]	IC50 [3] [nM]	IC50 [4] [nM]	Ki [5] [nM]	Kd [6] [nM]	Binder
2.8	–	–	–	–	–	6FAM-QEDIIRNIARHLAQVGDSMDR (Bid BH3 peptide, residues 79-99 of Swiss-Prot P55957; also called Flu-Bid; source: synthetic peptide)
–	6	60.1	–	–	–	QEDIIRNIARHLAQVGDSMDR (Bid BH3 peptide, residues 79-99 of Swiss-Prot P55957; also called unlabeled Bid BH3 peptide; source: provided by Dr. Peter P Roller (National Cancer Institute)) [Bid BH3 peptide (residues 79-99)]
–	> 20000	> 30000	8.64	3.2	–	NLWAAQRYGRELRRMSDEFVDSFKKG (Bad BH3 peptide, residues 103-128 of GenBank CAG46757; source: provided by Dr. Peter P Roller (National Cancer Institute)) [Bad BH3 peptide (residues 103-128)]
–	97	51	> 30000	> 10000	–	PAELEVECATQLRRFGDKLNFRQKLL (Noxa BH3 peptide, residues 18-43 of Swiss-Prot Q13794; source: provided by Dr. Peter P Roller (National Cancer Institute)) [Noxa BH3 peptide (residues 18-43)]
–	–	–	–	–	0.2	B1
